This note sets out measurements from the supplement of paper PMC9170038.

The series has as its system MS2 coat protein. Description: apparent KD of MS2 coat protein; designed switch direction (-1 OFF switch, 1 ON switch): -1; higher = weaker reporter binding. In a few lines:
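Each step of the titration lasted 0.8–1.5 h at the lowest concentration and 10–20 min at the highest. The protein, SNAP-549-labelled MS2 coat protein, went from 0.7 or 1.5 nM doubling to 3 µM over RNA switches transcribed on Illumina chips by stalled E. coli RNA polymerase. Normalised cluster fluorescence was curve-fitted, and the per-design median over clusters is given as apparent KD.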

Setting [1] is: input ligand: microRNA oligo, concentration not stated.
Setting [2] is: Eterna round: R95, input ligand: FMN 200 uM.
Where [3] appears, read: Eterna round: R95, input ligand: microRNA oligo, concentration not stated.
The mark [4] stands for this setting: Eterna round: R95, input ligand: none.

As for “UUUUUAGAUGAAGGAUAUACUUAACAUGAGGAUCACCCAUGUGGUGUUGUGAGUGAGUGAGUUUAGUAGAAGGUCAAUUCUUUU [JMF's solution 87] (Eterna round: R96, puzzle: Exclusion NG 2)”, the “apparent KD of MS2 coat protein” value is, setting by setting: (input ligand: FMN 200 uM) 566 nM; under setting [1], 311 nM; (input ligand: none) 346 nM.

With “AAACGGCGGACCGUGGCUUUUUGCUCGUCUUGUGCUUCGACAUGAGGAUCACCCAUGUGGUGGUGGUCCGUUGUAAA [Grok-var2-15 mod JAL] (puzzle: Sensor v3, turn-off variant 2)”, the “apparent KD of MS2 coat protein” value reads like this: under setting [2], 48.3 nM; under setting [3], 40.3 nM; under setting [4], 80.3 nM.

With “UAAGGGUGCGUAGGAUAUCGCGGCCGAAUAAAGCGAGAAGGACGCCCUAAUGGGUCGUCCAACAUGAGGAUCACCCAUGUAUAC [Uslaarus] (Eterna round: R96, puzzle: Exclusion NG 1)”, the “apparent KD of MS2 coat protein” value reads like this: (input ligand: FMN 200 uM) 55.4 nM; under setting [1], 31.2 nM; (input ligand: none) 41.5 nM.

Regarding “CUGGUCCGAGGAUAUAUUAAGUGAAACAUGAGGAUCACCCAUGUUAUUUAAUGGAUGUAAAUAGAAGGCGGACUAG [JL-ex5-3.12] (puzzle: Exclusion 5)”, the “apparent KD of MS2 coat protein” value was found to be 29.9 nM under setting [2], 37 nM under setting [3] and 42.8 nM under setting [4].

For “UUAAAUCAUGUAGGAUAUGCAUAGCGAAGCUAUGCAGAAGGACAUGAGGAUCACCCAUGUGCUUGCGUCCGCGUACGGAUGCUA [Mat - Exclusion NG 1 - Mod of JL - D67] (Eterna round: R96, puzzle: Exclusion NG 1)”, the “apparent KD of MS2 coat protein” value came to 423 nM (input ligand: FMN 200 uM), 84.4 nM under setting [1] and 123 nM (input ligand: none).

As for “ACAUGAUACUAGGAUAUCAGCAUACUUCAAUGUUGAGAAGGAGUAACAUGAGGAUCACCCAUGUAUCCAACAUG [Exclusion 6 - 4:b] (puzzle: Exclusion 6)”, under setting [3], the “apparent KD of MS2 coat protein” value turned out to be 43.5 nM.

With “UCCUCACUUGAGGAUCACCCAAGUCAGGAUAUUCACUGAACUGCGUAGCAGUUCGGCCGAAGAAGGGAUUCGGG [Lacequla] (Eterna round: R97, puzzle: Exclusion 1)”, the “apparent KD of MS2 coat protein” value reads like this: (input ligand: FMN 200 uM) 54.8 nM; (input ligand: none) 107 nM.

On to “AUUACAUGAGGAUAUACAUGAGGAUCACCCAUGUAAAUAGCAGUGGUAGUCAACUCGAGUAGAAGGCGUAACGU [Eternabot (L1) Solution 51] (Eterna round: R97, puzzle: Exclusion 3)”, for which the “apparent KD of MS2 coat protein” value was determined as 67.8 nM (input ligand: FMN 200 uM) and 58.7 nM (input ligand: none).

As to “AACCUUUAGUUAGGAUAUCGCAUCACCGUCAAGUGAGAAGGGACAUGAGGAUCACCCAUGUCUUCCGUGGGCUACACUGCUUCU [Eternabot solution 5] (Eterna round: R96, puzzle: Exclusion NG 1)”, the “apparent KD of MS2 coat protein” value (input ligand: FMN 200 uM) is 19 nM, the “apparent KD of MS2 coat protein” value under setting [1] turned out to be 19.4 nM and the “apparent KD of MS2 coat protein” value (input ligand: none) was 27.4 nM.

For the sequence “AUGGAAGAGCAAUAGCUCUACAUGAGGAUCACCCAUGUAGGAAAUACUGGGUACAGCGGGCUUUUUGCUCGGCUUAU [Alacar Attempt 4] (Eterna round: R97, puzzle: Sensor, turn-off variant 1)”, the “apparent KD of MS2 coat protein” value runs as follows: (input ligand: FMN 200 uM) 364 nM; (input ligand: none) 412 nM.

As to “AAGACACAUGAGGAUCACCCAUGUGAGGAUAUUUGAUGCGUACCUACAGGACUGCGAUAAAGAAGGCAUAAGGG [Eternabot (L2) Solution 80] (Eterna round: R97, puzzle: Exclusion 1)”, the “apparent KD of MS2 coat protein” value reads like this: (input ligand: FMN 200 uM) 50.3 nM; (input ligand: none) 17.7 nM.

With “UAUUAGCAAGCAAGAUCCCACAUGAGGAUCACCCAUGUGCUCGUCUUAUAAGGUACUGUGACGAAAGUCACGGUACC [Sensor 3, v1 - 95 v2] (Eterna round: R97, puzzle: Sensor, turn-off variant 1)”, the “apparent KD of MS2 coat protein” value came to 52.5 nM (input ligand: FMN 200 uM) and 45.4 nM (input ligand: none).

Take “GAAUAGAGAGGAUAUGCAAUGUAGGUAGUACGAUAUAUCUGACAUGAGGAUCACCCAUGUAGAAGGCUCAGAUC [EX2 #7] (Eterna round: R97, puzzle: Exclusion 2)”: the “apparent KD of MS2 coat protein” value by setting is: (input ligand: FMN 200 uM) 40.4 nM; (input ligand: none) 37.9 nM.

Take “CUCCGGCGUGUAGGAUAUGGUUCCGUUUUGGUUCCAGAAGGACAUGAGGAUCACCCAUGUACAUGUCGUCGGUCGUCACCGGGC [salish99_ExNG1_r04_214] (Eterna round: R96, puzzle: Exclusion NG 1)”: the “apparent KD of MS2 coat protein” value is, setting by setting: (input ligand: FMN 200 uM) 104 nM; under setting [1], 22.2 nM; (input ligand: none) 29.8 nM.

As to “GAUCGUUUAGAGGAUAUCGUGCUAAACAUUACAUGAGAAGGCUAGACAUGAGGAUCACCCAUGUAUGCUCGUGA [Exclusion 6 - 8:b] (puzzle: Exclusion 6)”, the “apparent KD of MS2 coat protein” value under setting [3] is 14.8 nM.

Turning to “AGUAACUCAAGAGGAUAUCACAUGAGGAUCACCCAUGUAUAGCGCGCUGCGCUAGUCCUCGUAUUUGAGAAGGUUUGAUAAAUG [Riausve] (Eterna round: R96, puzzle: Exclusion NG 2)”, the “apparent KD of MS2 coat protein” value reads like this: (input ligand: FMN 200 uM) 13 nM; under setting [1], 10.8 nM; (input ligand: none) 15.7 nM.

Consider “GUUACACAUGAGGAUCACCCAUGUAAGGAUAUGCUGCGGUCGCGCUGACGUGACUGCAGCAGAAGGUACAAUUG (puzzle: Exclusion 1)”, for which the “apparent KD of MS2 coat protein” value under setting [3] is 67.6 nM.

In the case of “GCUUCCCAUGUGAGGAUAUGUAGGGUUAACCCGAGGCAGAAGGCACAUGAGGAUCACCCAUGUUAAAACUUCUA [Xecera] (puzzle: Brourd's mod of Exclusion 4)”, the “apparent KD of MS2 coat protein” value under setting [3] came out at 30.8 nM.

As to “AAUAACAGAGGAUAUACUAUUUUAUGUGUUUGUUAUUUUAAACAUGAGGAUCACCCAUGUAGAAGGCUGAUUAA [JMF 44] (puzzle: Exclusion 2)”, under setting [3], the “apparent KD of MS2 coat protein” value is 38.5 nM.

Consider “UAGGAGUCAGGAUAUGCGAGAGAUUGAAGUAUGGGAAGUGAGCAGAAGGGACAUGAGGAUCACCCAUGUGAGAA [JR_Exclu4_Sub094] (puzzle: Exclusion 4)”, for which the “apparent KD of MS2 coat protein” value under setting [2] was 52.1 nM, the “apparent KD of MS2 coat protein” value under setting [3] stood at 46.8 nM and the “apparent KD of MS2 coat protein” value under setting [4] amounted to 45 nM.

As for “ACUCGACAUGAGGAUCACCCAUGUGAGGAUAUGGCCUGUUUGGCGUGAGCUGGCUCUGUCAGAAGGCGCGUGGG [salish99_ex1_r4_045] (Eterna round: R97, puzzle: Exclusion 1)”, the “apparent KD of MS2 coat protein” value is, setting by setting: (input ligand: FMN 200 uM) 138 nM; (input ligand: none) 75.5 nM.

For the sequence “UGUUGUCGCGUAGGAUAUGUAUGAGGAUCACCCAUUAAUAAAUUUUAACCACGAGGAUCACCCGUGUAGAAGGACGGGACAACA [pwkr exNG2 2xF5 1xFMN.16] (Eterna round: R96, puzzle: Exclusion NG 2)”, the “apparent KD of MS2 coat protein” value reads like this: (input ligand: FMN 200 uM) 37.9 nM; under setting [1], 18.1 nM; (input ligand: none) 30.6 nM.

“GCUUGUAGAGGAUAUACAAGGGCCCGAGCGGCGAGAGCCGCACAUGAGGAUCACCCAUGUAGAAGGCUACUAUA [JL-ex2-4.21 ViennaUCT mod] (Eterna round: R97, puzzle: Exclusion 2)”: the “apparent KD of MS2 coat protein” value (input ligand: FMN 200 uM) is 201 nM and the “apparent KD of MS2 coat protein” value (input ligand: none) amounted to 237 nM.

On to “GAAAAGGUAGGAUAUACGAAAAAAAAGGGUAGAAAAAUAACACAUGAGGAUCACCCAUGUAGAAGGACCAAAAG [salish99_ex2_r3_074] (puzzle: Exclusion 2)”, for which the “apparent KD of MS2 coat protein” value is, setting by setting: under setting [2], 111 nM; under setting [3], 23 nM; under setting [4], 29 nM.

With “ACAAAGUGAGGAUAUACUAAAACCCUCAUACCCAAAAGGGAACAUGAGGAUCACCCAUGUAGAAGGCACAUAAU [Esmainleor] (puzzle: Exclusion 2)”, the “apparent KD of MS2 coat protein” value under setting [2] is 549 nM, the “apparent KD of MS2 coat protein” value under setting [3] was found to be 100 nM and the “apparent KD of MS2 coat protein” value under setting [4] stood at 92.3 nM.

“ACUUAUAGAGGAUAUACAGUAUAUUACAUGAGGAUCACCCAUGUUCUUCAAUGUAUAUAUGUAGAAGGCUAAGGAA [EX-5 Malc#6] (puzzle: Exclusion 5)”: under setting [3], the “apparent KD of MS2 coat protein” value stood at 183 nM.

Take “AAAUAAUAGAUAAAAUAAAACAUGAGGAUCACCCAUGUGGGAAGAUGAGGGUGAAACAAGCUUUUUGCUCGUCUUAU (puzzle: Sensor v3, turn-off variant 1)”: the “apparent KD of MS2 coat protein” value runs as follows: under setting [2], 37.8 nM; under setting [3], 754 nM; under setting [4], 46.7 nM.

With “UUUUUUUUGCUGGUUUUUUACAUGAGGAUCACCCAUGUCCUCUGCUUGUCUUGUGUUGUGCUGGUUUCUGGUGCGGC [Revision to "-18.4 -40.2 kcal, A 8%"by Sellena] (Eterna round: R97, puzzle: Sensor, turn-off variant 1)”, the “apparent KD of MS2 coat protein” value by setting is: (input ligand: FMN 200 uM) 428 nM; (input ligand: none) 1210 nM.

Take “AUUCGGAUAGGAUAUACUUGAGGAUCACCCAAGUGUUUGAACUAUCGUGAUCUGAAGAGUAGAAGGAUCAUCAU [Atquedzaed] (Eterna round: R97, puzzle: Exclusion 3)”: the “apparent KD of MS2 coat protein” value came to 176 nM (input ligand: FMN 200 uM) and 90.7 nM (input ligand: none).

Consider “GCACGGAAUGUAGGAUAUUAGUGCGAUUAGCACUGAGAAGGACAUGAGGAUCACCCAUGUAAUAACAUAAUAAACCUUCCGUGC [Eli exng1 - 046] (Eterna round: R96, puzzle: Exclusion NG 1)”, for which the “apparent KD of MS2 coat protein” value came to 12.1 nM (input ligand: FMN 200 uM), 8.27 nM under setting [1] and 13.6 nM (input ligand: none).

Take “GAUCAUGCAGGAUAUACAUGAACCAUGAAAACAUGGUUUUCACAUGAGGAUCACCCAUGUAGAAGGGCAUGAUC [Omei Ex2 A7] (Eterna round: R97, puzzle: Exclusion 2)”: the “apparent KD of MS2 coat protein” value (input ligand: FMN 200 uM) turned out to be 183 nM and the “apparent KD of MS2 coat protein” value (input ligand: none) was determined as 56.7 nM.
